Results as given in patent US20160264634A1.

Legend:
mKv1.3 channel (mouse) = mKv1.3 channel (mouse) (UniProt P16390); test: cell-based or functional assay
mKv1.1 channel (mouse) = mKv1.1 channel (mouse) (UniProt P16388); test: cell-based or functional assay
Sequence of mKv1.1 channel (mouse) (P16388 whole entry): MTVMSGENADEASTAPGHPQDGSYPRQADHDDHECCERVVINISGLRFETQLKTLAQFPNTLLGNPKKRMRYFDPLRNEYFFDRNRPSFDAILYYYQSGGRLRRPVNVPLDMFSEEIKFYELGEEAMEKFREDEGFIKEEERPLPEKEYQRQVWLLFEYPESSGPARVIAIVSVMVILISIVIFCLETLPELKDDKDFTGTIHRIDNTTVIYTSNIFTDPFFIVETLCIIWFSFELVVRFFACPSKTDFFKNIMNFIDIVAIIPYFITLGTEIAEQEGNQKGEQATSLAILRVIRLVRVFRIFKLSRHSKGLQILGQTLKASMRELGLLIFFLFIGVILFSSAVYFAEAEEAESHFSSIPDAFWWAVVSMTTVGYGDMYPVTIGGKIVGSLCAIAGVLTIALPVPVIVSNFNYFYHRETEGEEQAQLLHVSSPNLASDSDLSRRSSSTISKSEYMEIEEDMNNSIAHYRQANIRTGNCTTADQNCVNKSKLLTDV

Sequence of mKv1.3 channel (mouse) (P16390 whole entry): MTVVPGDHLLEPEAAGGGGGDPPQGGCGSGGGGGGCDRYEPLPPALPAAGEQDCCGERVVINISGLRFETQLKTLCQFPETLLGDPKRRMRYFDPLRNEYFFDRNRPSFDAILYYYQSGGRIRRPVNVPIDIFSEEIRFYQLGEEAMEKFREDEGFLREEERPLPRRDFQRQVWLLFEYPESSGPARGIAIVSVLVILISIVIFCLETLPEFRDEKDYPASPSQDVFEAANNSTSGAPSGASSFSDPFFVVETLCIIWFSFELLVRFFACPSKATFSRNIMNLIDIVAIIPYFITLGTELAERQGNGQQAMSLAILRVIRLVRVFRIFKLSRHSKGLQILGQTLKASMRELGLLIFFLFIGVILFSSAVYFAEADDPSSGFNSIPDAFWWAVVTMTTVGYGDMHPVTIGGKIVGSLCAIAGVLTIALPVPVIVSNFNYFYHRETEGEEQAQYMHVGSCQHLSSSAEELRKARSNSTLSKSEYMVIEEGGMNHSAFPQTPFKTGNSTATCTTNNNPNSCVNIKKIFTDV
Sequence of ShK (P29187 whole entry): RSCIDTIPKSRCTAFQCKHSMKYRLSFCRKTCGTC
Sequence of ShK-K-amide (P29187 whole entry): as above

Row | Substance | IC50 of current block, whole-cell patch-clamp (mKv1.3 channel (mouse)) | IC50 of current block, whole-cell patch-clamp (mKv1.1 channel (mouse))
1 | ShK-K-amide (from UniProt P29187 1-35) (peptide) | 0.026 nM | –
2 | ShK-amide (from UniProt P29187 1-35) (peptide) | 0.035 nM | 0.037 nM
3 | ShK (from UniProt P29187 1-35) (peptide) | 0.009 nM | 0.023 nM
